Substitutions are numbered along the chain they refer to. In names and notes the source's numbering stands.
T1: CD25 (IL-2Rα) on the surface of activated T cells (UniProt P01589 22-272, limits assumed)
T1 construct: whole, on cells; also called cell surface CD25
T1 sequence (looked up): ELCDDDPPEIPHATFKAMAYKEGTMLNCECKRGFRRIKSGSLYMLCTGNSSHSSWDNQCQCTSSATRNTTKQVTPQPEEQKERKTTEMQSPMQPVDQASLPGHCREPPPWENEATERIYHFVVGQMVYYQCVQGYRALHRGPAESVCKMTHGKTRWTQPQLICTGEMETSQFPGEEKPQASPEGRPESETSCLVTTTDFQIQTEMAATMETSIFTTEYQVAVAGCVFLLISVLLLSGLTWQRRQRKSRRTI

B1: HaMut1D (V69A, Q74P, N88D, C125A) (ligand)
chain: APTSSSTKKTQLQLEHLLLDLQMILNGINNYKNPKLTRMLTFKFYMPKKATELKHLQCLEEELKPLEEALNLAPSKNFHLRPRDLISDINVIVLELKGSETTFMCEYADETATIVEFLNRWITFAQSIISTLT
notes: IL-2 mutein without Fc; not shown: C-terminal FLAG and poly-His tag
B2: HaMut8D (K35R, K48E, E68D, N88D, C125A) (ligand)
chain: B1 chain with K35R, K48E, E68D, A69V, P74Q
notes: not shown: C-terminal FLAG and poly-His tag
B3: HaMut6D (E68D, V69A, Q74P, N88D, C125A) (ligand)
chain: B1 chain with E68D
notes: as for B2
B4: HaMut3D (K35R, V69A, Q74P, N88D, C125A) (ligand)
chain: B1 chain with K35R
notes: as for B2
B5: HaMut2D (N30S, V69A, Q74P, N88D, C125A) (ligand)
chain: B1 chain with N30S
notes: as for B2
B6: HaMut4D (T37A, V69A, Q74P, N88D, C125A) (ligand)
chain: B1 chain with T37A
notes: as for B2
B7: HaMut7D (N71R, V69A, Q74P, N88D, C125A) (ligand)
chain: B1 chain with N71R
notes: as for B2
B8: HaMut5D (K48E, V69A, Q74P, N88D, C125A) (ligand)
chain: B1 chain with K48E
notes: as for B2

molecular target: T1, CD25 (IL-2Rα) on the surface of …; experiment: flow cytometry, binding to CD25 on the surface of activated T cells

Kd	binding result	Binder
~2 nM	–	B1
–	binds	B2
–	binds	B3
–	binds	B4
–	binds	B5
–	binds	B6
~0.2 nM	–	B7
–	binds	B8
